The data set concerns the molecule itself. Put plainly: cryo-TEM + other: SAXS; in vitro assembly: purified CCMV capsid proteins mixed with in vitro transcribed RNA (C2, 2767 nt, or RF2, 2687 nt) and dialysed overnight against 0.1 M NaCl, 50 mM tris-HCl pH 7.5; SAXS at 25 uM protein, protein-to-RNA mass ratio 4.5; cryo-TEM at 75 uM protein, mass ratio 6.0.

This note sets out measurements from paper PMC12459405, “From disorder to icosahedral symmetry: How conformation-switching subunits enable RNA virus assembly” (Science Advances, 2025).

B1: cowpea chlorotic mottle virus (CCMV) capsid protein (natural protein)
chain: MSTVGTGKLTRAQRRAAARKNKRNTRVVQPVIVEPIASGQGKAIKAWTGYSVSKWTASCAAAEAKVTSAITISLPNELSSERNKQLKVGRVLLWLGLLPSVSGTVKSCVTETQTTAAASFQVALAVADNSKDVVAAMYPEAFKGITLEQLTADLTIYLYSSAALTEGDVIVHLEVEHVRPTFDDSFTPVY
notes: Free capsid protein stored in 0.5 M NaCl, 50 mM tris-HCl pH 7.5; also called CCMV capsid proteins; CCMV coat proteins; source: purified from CCMV virions from infected cowpea leaves (Vigna unguiculata); virions disassembled by dialysis, capsid proteins recovered by ultracentrifugation
In the case of B1, the binding result is given as “binds”.
